Experimental data published in patent publication US20250290928A1, “METHOD, KIT AND DEVICE FOR DETECTING EXTRACELLULAR VESICLES” (priority 2022, published 2025).
No end group written: not given here. *: point of attachment. 5FAM = O=C1OC2(c3ccc(O)cc3Oc3cc(O)ccc32)c2ccc(C(=O)*)cc21; TQ2 = quencher; TQ3 = quencher

Assays:
Assay type in all cases: biochemical
[1] = target: T1, MMP14 in the A549-derived extracellular vesicles (Homo sapiens, UniProt P50281); experiment: Evaluation of MMP14 activity of A549-derived extracellular vesicles with 96-well plate; conditions: reporter 5 μM, 37° C.
T1 construct: host or cells: A549 (purified exosomes)
Description: The MMP14 activity was evaluated with a 96-well plate (manufactured by Thermo Fisher Scientific Inc., model number: 137101). A fluorescence intensity was measured with a fluorescence plate reader (Synergy MX, manufactured by BioTek Instruments, Inc.) at […] every 5 min for 1 hour. For measurement wavelengths, an excitation wavelength of 485±20 nm and a fluorescence wavelength of 528±20 nm were used.
With regard to the COLO201-derived extracellular vesicles, the concentration of the solution was set to x1/10, and 3-fold serial dilution was performed to prepare standard samples with three concentrations.
(§1) 50 μL of the MMP14 detection solution was added to 50 μL of each of the samples, a reaction was performed at 37° C., and MMP14 activity was evaluated.
(§2) The concentration of the solution is 20 μg/mL. […] The concentration of the solution was set to x1, and 10-fold serial dilution was performed to prepare standard samples with five concentrations.
(§3) The concentration of the solution is 10 μg/mL.
Evaluation was performed in the same manner as in Example 1 except that the reaction temperature was set to 23° C. ΔRFU was calculated by subtracting the measured value of the sample for BG measurement from the measured value of each of the samples.

[2] = target: T2, MMP14 in the MDA-MB-231-derived extracellular vesicles (Homo sapiens, UniProt P50281); experiment: Evaluation of MMP14 activity of MDA-MB-231-derived extracellular vesicles with 96-well plate; conditions: for increase in fluorescence intensity (temporal change): Example 4, EV 5 μg/mL, Assay buffer (Component D); for reaction rate per 1 μg/mL of extracellular vesicles: within 1 hour; for Km / Vmax: Example 9, EV 4 μg/mL, buffer (3), Lineweaver-Burk plots
T2 construct: in terms of intact MMP14 with a molecular weight of 70 kDa
Description: A relative fluorescence unit difference ΔRFU was calculated by subtracting the measured value of the sample for BG measurement from the measured value of each of the samples.
The concentration of the solution is 41.7 μg/mL. The concentration of the solution was set to x1, and 2-fold serial dilution was performed to prepare standard samples with six concentrations.
as §1, §3
50 μL of each of the MMP14 detection solutions was added to 50 μL of each of the samples, a reaction was performed at 37° C., and MMP14 activity was evaluated. […]
The concentration of the solution is 20 μg/mL. The concentration of the solution was set to x1, and 3-fold serial dilution was performed to prepare standard samples with three concentrations.
The concentration of the solution is 8 μg/mL.
50 μL of each of the MMP14 detection solutions was added to 50 μL of the sample, a reaction was performed at 37° C., and MMP14 activity was evaluated. […]
50 μL of the MMP14 detection solution was added to 50 μL of each of the samples, a reaction was performed at 30° C., and MMP14 activity was evaluated.
The MMP14 activity of the extracellular vesicles was evaluated with a 96-well plate (137101). A fluorescence intensity was measured with a fluorescence plate reader (Synergy) at 30° C. every 5 minutes for 2 hours. For measurement wavelengths, an excitation wavelength of 545±20 nm and a fluorescence wavelength of 588±20 nm were used. A relative fluorescence unit difference (ΔRFU) was calculated by subtracting the measured value of the sample for BG measurement from the measured value of each of the samples.
50 μL of each of the MMP14 detection solutions was added to 50 μL of each of the samples, a reaction was performed at 30° C., and MMP14 activity was evaluated.

[3] = target: T1, MMP14 in the A549-derived extracellular vesicles; experiment: Digital detection of A549-derived extracellular vesicles through MMP14 activity in wells (Simoa Discs)
Description: as §2, §3

[4] = Example 5, Assay buffer (Component D) of SensoLyte 520 MMP-14 Assay Kit, reporter 5 μM, 37° C.
[5] = Example 8, buffer (2), reporter 5 μM, 37° C.
[6] = buffer (4), reporter 5 μM, 37° C.
[7] = Example 21, 37° C., 5 h, BG, EV 0 (free of extracellular vesicles, pseudopositive)
[8] = Example 21, 37° C., 5 h, ΔBG Absent, EV 0.0001 a.u.
[9] = Example 21, 37° C., 5 h, ΔBG Absent, EV 0.001 a.u.
[10] = Example 21, 37° C., 5 h, ΔBG Absent, EV 0.01 a.u.
[11] = Example 21, 37° C., 5 h, ΔBG Absent, EV 0.1 a.u.
[12] = Example 21, 37° C., 5 h, ΔBG Absent, EV 1 a.u. (x1=10 μg/mL)
[13] = Example 21, 37° C., 5 h, ΔBG Present (positives at EV 0 subtracted), EV 1 a.u.
[14] = Example 21, 37° C., 5 h, ΔBG Present, EV 0.0001 a.u.
[15] = Example 21, 37° C., 5 h, ΔBG Present, EV 0.001 a.u.
[16] = Example 21, 37° C., 5 h, ΔBG Present, EV 0.01 a.u.
[17] = Example 21, 37° C., 5 h, ΔBG Present, EV 0.1 a.u.
[18] = Example 27, 23° C., 5 h, EV 0 (free of extracellular vesicles)
[19] = Example 27, 23° C., 5 h, EV 0.01 a.u.
[20] = Example 27, 23° C., 5 h, EV 0.1 a.u.
[21] = Example 27, reporter 10 μM, 23° C., 5 h, EV 1 a.u. (x1=5 μg/mL)

“[5-FAM]GRIGFLRTAK(TQ2)[OH] (5FAM-GRIGFLRTAK(TQ2)-OH) [Custom #1]” was tested, and the “extracellular vesicle concentration at which MMP14 activity was able to be detected with a 96-well plate” value ([1]; Example 21, buffer (4)) was ≥ 10 µg/mL, the “increase in fluorescence intensity (temporal change)” value ([2]; reporter 5 μM, 37° C.) was “more significant than that from SensoLyte 520 MMP-14” and the “reaction rate per 1 μg/mL of extracellular vesicles” value (shortened to “reaction rate per 1 μg/mL”) [2, 4] was 101.5 ΔRFU/min. For the same substance, the “reaction rate per 1 μg/mL” value [2, 5] was 198 ΔRFU/min, the Km ([2]; 37° C.) was 0.443 µM and the Vmax ([2]; 37° C.) was 1,278.77 ΔRFU/min. For the same substance, the “cleaved more easily than Custom #2” value ([2]; Example 9 reaction conditions) was “about 2.5 times”, the “fluorescence intensity at the same extracellular vesicle concentration” value ([2]; Example 10, buffer (3), reporter 5 μM, 37° C.) was “higher than the fluorescence intensity from Custom #2” and the “extracellular vesicle concentration at which MMP14 activity was able to be detected with a 96-well plate” value [2, 6] was ≥ 1 µg/mL. The “Expected value λ” value [3, 7] was 0.000656, the Number of positives [3, 7] was 38 and the Positive ratio [3, 7] was 0.000656. The “Expected value λ” value [3, 8] was 0.000725, the Number of positives [3, 8] was 42 and the Positive ratio [3, 8] was 0.000724. For the same substance, the “Expected value λ” value [3, 9] was 0.000985, the Number of positives [3, 9] was 57 and the Positive ratio [3, 9] was 0.000984. For the same substance, the “Expected value λ” value [3, 10] was 0.00207, the Number of positives [3, 10] was 119 and the Positive ratio [3, 10] was 0.00206. For the same substance, the “Expected value λ” value [3, 11] was 0.0137, the Number of positives [3, 11] was 789 and the Positive ratio [3, 11] was 0.0136. For the same substance, the “Expected value λ” value [3, 12] was 0.149, the Number of positives [3, 12] was 8,036 and the Positive ratio [3, 12] was 0.139. For the same substance, the “Expected value λ” value [3, 13] was 0.148, the Number of positives [3, 13] was 7,998 and the Positive ratio [3, 13] was 0.138. For the same substance, the “Expected value λ” value [3, 14] was 0.000069, the Number of positives [3, 14] was 4 and the Positive ratio [3, 14] was 0.000069. For the same substance, the “Expected value λ” value [3, 15] was 0.000328, the Number of positives [3, 15] was 19 and the Positive ratio [3, 15] was 0.000328. The “Expected value λ” value [3, 16] was 0.00141, the Number of positives [3, 16] was 81 and the Positive ratio [3, 16] was 0.0014. For the same substance, the “Expected value λ” value [3, 17] was 0.013, the Number of positives [3, 17] was 751 and the Positive ratio [3, 17] was 0.0129. For the same substance, the “λ at x1 in an approximation with BG correction” value ([3]; Example 21, 5 h) was 0.120, the “λ at x1 in an approximation without BG correction” value ([3]; Example 21, 5 h) was 0.102 and the “extracellular vesicle concentration at which MMP14 activity was able to be detected in the microcompartment” value ([3]; Example 21, Simoa Discs, buffer (4), reporter 5 μM, 37° C., 5 h) was ≥ 100 ng/mL. For the same substance, the Extracellular vesicle concentration ([3]; Example 21, with BG correction) was 2.4e+09 mL⁻¹, the “extracellular vesicles in which MMP14 activity can be detected, contained in 1 μL of the extracellular vesicles (50 μg of protein in 50 μL of PBS)” value ([3]; Example 21, with BG correction) was 2.4×10^8 and the Extracellular vesicle concentration ([3]; Example 21, without BG correction) was 2.0×10^8 /μg of protein. It also gave an Extracellular vesicle concentration ([3]; Example 21, without BG correction, reaction solution 10 μg of protein/mL, 50 fL) of 2e+09 mL⁻¹.

With “[5-FAM]GGPLGLAGGK(TQ2)[OH] (5FAM-GGPLGLAGGK(TQ2)-OH) [Custom #2]” the “fluorescence intensity at the same extracellular vesicle concentration” value ([1]; Example 10, buffer (3)) was “higher than the fluorescence intensity from Custom #1”, the “increase in fluorescence intensity (temporal change)” value ([2]; reporter 5 μM, 37° C.) was “more significant than that from SensoLyte 520 MMP-14” and the “reaction rate per 1 μg/mL” value [2, 4] was 83.3 ΔRFU/min. The “reaction rate per 1 μg/mL” value [2, 5] was 99.0 ΔRFU/min, the Km ([2]; 37° C.) was 0.511 µM and the Vmax ([2]; 37° C.) was 582.411 ΔRFU/min. The “extracellular vesicle concentration at which MMP14 activity was able to be detected with a 96-well plate” value [2, 6] was ≥ 1 µg/mL, the Extracellular vesicle concentration ([3]; Example 27) was 1.1×10^9 /μg of protein and the “Expected value λ” value [3, 18] was 0.000023. For the same substance, the Number of positives [3, 18] was 2, the Positive ratio [3, 18] was 0.000023 and the “Expected value λ” value [3, 19] was 0.004117. For the same substance, the Number of positives [3, 19] was 357, the Positive ratio [3, 19] was 0.004109 and the “Expected value λ” value [3, 20] was 0.03235. The Number of positives [3, 20] was 2,766, the Positive ratio [3, 20] was 0.03184 and the “λ at x1 in the approximation of FIG. 58” value ([3]; Example 27, 5 h) was 0.2767. The “concentration of the extracellular vesicles that can be detected based on the MMP14 activity” value ([3]; Example 27, reaction solution 5 μg of protein/mL, 50 fL) was 5.5e+09 mL⁻¹, the “Expected value λ” value [3, 21] was 0.2767 and the Number of positives [3, 21] was 20,982. The Positive ratio [3, 21] was 0.2417.

With “TAMRA-GGPLGLAGGK(TQ3) ({TAMRA}-GGPLGLAGGK(TQ3)) [Custom #2T]” the “Fluorescence change after 2 hours of reaction at 30° C.” value (“Fluorescence change after 2 hours” below) ([2]; Example 41, EV 5 μg/mL, reporter 5 μM, buffer (4), excitation 545±20 nm, fluorescence 588±20 nm) was 6,455 ΔRFU, the “Fluorescence change after 2 hours” value ([2]; MP, 1.25 μM #2T with 1.25 μM #1, EV 3.3 μg/mL) was 1,015 ΔRFU and the “Fluorescence change after 2 hours” value ([2]; MP, 1.25 μM #2T with 1.25 μM #2, EV 3.3 μg/mL) was 1,734 ΔRFU. The “Fluorescence change after 2 hours” value ([2]; MP, 2.5 μM #2T with 2.5 μM #1, EV 3.3 μg/mL) was 1,118 ΔRFU and the “Fluorescence change after 2 hours” value ([2]; MP, 2.5 μM #2T with 2.5 μM #2, EV 3.3 μg/mL) was 2,196 ΔRFU.
